# Measured values as given in patent US20240384250A1, “FIBROBLAST GROWTH FACTOR 23 MODULATING COMPOUNDS” (THE UAB RESEARCH FOUNDATION, priority 2021, published 2024).
# “Also recorded” adds a separate entry of the source.
# B1: sKL: recombinant soluble α-klotho ectodomain, mouse aa 35-982 and human aa 34-981, FLAG- or Strep/His-tagged, purified from HEK293 cells (protein)
# chain: EPGDGAQTWARFSRPPAPEAAGLFQGTFPDGFLWAVGSAAYQTEGGWQQHGKGASIWDTFTHHPLAPPGDSRNASLPLGAPSPLQPATGDVASDSYNNVFRDTEALRELGVTHYRFSISWARVLPNGSAGVPNREGLRYYRRLLERLRELGVQPVVTLYHWDLPQRLQDAYGGWANRALADHFRDYAELCFRHFGGQVKYWITIDNPYVVAWHGYATGRLAPGIRGSPRLGYLVAHNLLLAHAKVWHLYNTSFRPTQGGQVSIALSSHWINPRRMTDHSIKECQKSLDFVLGWFAKPVFIDGDYPESMKNNLSSILPDFTESEKKFIKGTADFFALCFGPTLSFQLLDPHMKFRQLESPNLRQLLSWIDLEFNHPQIFIVENGWFVSGTTKRDDAKYMYYLKKFIMETLKAIKLDGVDVIGYTAWSLMDGFEWHRGYSIRRGLFYVDFLSQDKMLLPKSSALFYQKLIEKNGFPPLPENQPLEGTFPCDFAWGVVDNYIQVDTTLSQFTDLNVYLWDVHHSKRLIKVDGVVTKKRKSYCVDFAAIQPQIALLQEMHVTHFRFSLDWALILPLGNQSQVNHTILQYYRCMASELVRVNITPVVALWQPMAPNQGLPRLLARQGAWENPYTALAFAEYARLCFQELGHHVKLWITMNEPYTRNMTYSAGHNLLKAHALAWHVYNEKFRHAQNGKISIALQADWIEPACPFSQKDKEVAERVLEFDIGWLAEPIFGSGDYPWVMRDWLNQRNNFLLPYFTEDEKKLIQGTFDFLALSHYTTILVDSEKEDPIKYNDYLEVQEMTDITWLNSPSQVAVVPWGLRKVLNWLKFKYGDLPMYIISNGIDDGLHAEDDQLRVYYMQNYINEALKAHILDGINLCGYFAYSFNDRTAPRFGLYRYAADQFEPKASMKHYRKIIDSNGFPGPETLERFCPEEFTVCTECSFFHTRKS
# modifications: left off: small tags and cut ends
# notes: recombinant soluble α-klotho ectodomain, mouse aa 35-982 and human aa 34-981, FLAG- or Strep/His-tagged, purified from HEK293 cells
# Key:
# Experiment in all cases: Plate-based binding, FGF23 coated, then sKL, heparin or PBS, then Fc-FGFR
# Conditions in all cases: with sKL, with heparin 0.4 USP, or alone
# FGF23 binding to FGFR1c = biological target: T1, FGF23 binding to FGFR1c (Homo sapiens, UniProt P11362+Q9GZV9)
# T1 construct: Fc-coupled FGFR ectodomains were immobilized on protein A/G beads; purchased R&D Systems 2604FG025/CF or 2629FG025/CF; 658FR050
# T1 sequence (Q9GZV9 25-251): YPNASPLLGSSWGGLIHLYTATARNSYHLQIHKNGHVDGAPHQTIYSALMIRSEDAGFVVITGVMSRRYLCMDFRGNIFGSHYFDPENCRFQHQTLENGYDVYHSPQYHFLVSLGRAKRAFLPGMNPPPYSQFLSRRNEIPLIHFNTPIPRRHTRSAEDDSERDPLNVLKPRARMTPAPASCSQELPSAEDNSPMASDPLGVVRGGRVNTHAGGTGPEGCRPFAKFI
# T1 sequence (P11362 22-376 limits assumed): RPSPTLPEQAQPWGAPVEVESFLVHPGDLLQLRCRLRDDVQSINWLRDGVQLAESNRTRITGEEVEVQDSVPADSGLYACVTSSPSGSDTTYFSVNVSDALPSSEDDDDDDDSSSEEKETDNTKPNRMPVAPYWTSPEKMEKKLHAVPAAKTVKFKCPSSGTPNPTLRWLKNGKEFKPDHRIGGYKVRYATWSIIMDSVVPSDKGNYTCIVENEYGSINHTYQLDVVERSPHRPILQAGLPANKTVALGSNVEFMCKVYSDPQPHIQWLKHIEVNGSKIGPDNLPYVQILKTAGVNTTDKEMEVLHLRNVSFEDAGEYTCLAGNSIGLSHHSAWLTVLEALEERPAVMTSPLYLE
# Description: (§1) Proteins were coated on 96-well plates (MaxiSorp; 439454, Thermo Fisher Scientific), and proteins were added to wells in 100 μl of enzyme-linked immunosorbent assay (ELISA) coating buffer (E107, Bethyl Laboratories) with a lid placed overtop and incubated at 4° C. overnight. Plates were washed 5× with 350 μl of assay buffer (50 mM Tris [pH 7.4], 200 mM NaCl, 0.01% Tween 20) on a 50 TS microplate washer (BioTek). Plates were blocked for 1 hour in 200 μl of assay buffer with 0.5% BSA. Plates were washed as before, and proteins were incubated on plates in 100 μl of assay buffer with 0.5% BSA. Proteins or heparin was incubated in orders described in the respective figure legends. Assays using FLAG-tag-based detection were incubated with anti-FLAG coupled to HRP at 1:20,000, and assays using Fc detection were incubated with anti-human Fc coupled to HRP at 1:10,000. Plates were washed as above, and 100 μl of 3,3′,5,5′-tetramethylbenzidine (TMB) substrate (E102, Bethyl Laboratories) was added for 15 to 20 minutes until positive wells developed a dark blue color. Reactions were stopped with ELISA stop solution (E115, Bethyl Laboratories) and analyzed using the Synergy HI plate reader (BioTek) at 450 nm wavelength. […] As a control to remove background absorbance values, wells were coated with an equal amount of BSA to match the amount of protein coated in experimental wells and treated the same as experimental wells. To study the effects of sKL on the binding between paracrine FGFs and FGFRs, plates were run as above except coated with paracrine FGFs. Fc-FGFR1 was preincubated with sKL or vehicle for 60 minutes, and then the combination was added to wells and the assay was run as before.
# FGF23 binding to FGFR2c = biological target: T2, FGF23 binding to FGFR2c (Homo sapiens, UniProt P21802)
# T2 construct: Fc-coupled FGFR ectodomains were immobilized on protein A/G beads; purchased R&D Systems 2604FG025/CF or 2629FG025/CF; 712FR050
# Description: as §1
# FGF23 binding to FGFR3c = biological target: T3, FGF23 binding to FGFR3c (Homo sapiens, UniProt P22607+Q9GZV9)
# T3 construct: Fc-coupled FGFR ectodomains were immobilized on protein A/G beads; purchased R&D Systems 2604FG025/CF or 2629FG025/CF; 766FR050
# T3 sequence (Q9GZV9 25-251): T1 sequence (Q9GZV9 25-251)
# T3 sequence (P22607 23-375 limits assumed): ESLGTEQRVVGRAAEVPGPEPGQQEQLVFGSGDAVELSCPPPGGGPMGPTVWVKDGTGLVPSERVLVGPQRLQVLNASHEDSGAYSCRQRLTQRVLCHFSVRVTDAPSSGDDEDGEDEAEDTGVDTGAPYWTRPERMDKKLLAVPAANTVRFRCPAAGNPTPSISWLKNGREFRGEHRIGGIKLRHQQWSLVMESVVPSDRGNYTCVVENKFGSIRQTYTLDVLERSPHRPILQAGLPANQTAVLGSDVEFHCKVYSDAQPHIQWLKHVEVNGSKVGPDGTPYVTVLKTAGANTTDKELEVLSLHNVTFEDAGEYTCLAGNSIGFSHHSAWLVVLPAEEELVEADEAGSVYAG
# Description: as §1
# T2 sequence (P21802 22-377 limits assumed): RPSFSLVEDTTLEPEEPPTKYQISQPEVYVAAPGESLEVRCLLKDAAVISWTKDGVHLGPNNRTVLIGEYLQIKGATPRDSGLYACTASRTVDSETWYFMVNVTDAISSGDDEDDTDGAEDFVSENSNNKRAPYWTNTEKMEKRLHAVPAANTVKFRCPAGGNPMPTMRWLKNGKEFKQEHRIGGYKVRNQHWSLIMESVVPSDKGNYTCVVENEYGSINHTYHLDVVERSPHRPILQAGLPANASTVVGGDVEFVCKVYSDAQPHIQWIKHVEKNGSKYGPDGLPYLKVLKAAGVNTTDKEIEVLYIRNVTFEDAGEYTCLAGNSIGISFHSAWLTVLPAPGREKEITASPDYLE
molecule,measurement,setting,value
B1,binding of coated FGF23 to Fc-FGFR1c,FGF23 binding to FGFR1c,highest FGF23-sKL affinities; also recorded: increased; also recorded: the strongest
same,binding of coated FGF23 to Fc-FGFR2c,FGF23 binding to FGFR2c,no binding
same,binding of coated FGF23 to Fc-FGFR3c,FGF23 binding to FGFR3c,lower affinity; also recorded: weaker binding
